Measurements reported in patent publication US20160168234A1 (published 2016).
Ends that are not written are not given here.

How the values were obtained:
Experiment in all cases: ELISA on biotinylated peptides of the alanine library on streptavidin plates
[1] = target: T1, peptide A20 of the second library (Aβ12-20 with aa 20 changed to alanine) (also: biotinylated, position not given here)
T1 peptide: VHHQKLVFA
Text: (§1) One library comprised a total of 33 biotinylated peptides covering the complete amino acid (aa) sequence of Aβ1-42 (produced by Mimotopes and purchased from ANAWA Trading SA), the second library contains biotinylated peptides using peptide 12 (aa12-20 of Aβ) from the first peptide library and substituting each as in the sequence by an alanine (see table 3 below), and the third library contains biotinylated peptides 13, 14, or 15 (aa 13-21, 14-22 or 15-23 of Aβ) and substituting in each case the last amino acids to an alanine or to a glycine for as 21 which is already an alanine (see table 4 below). A biotinylated complete Aβ1-42 peptide was used as positive control (Bachem). Epitope mapping was done according to the manufacturer's (Mimotopes) instructions. Briefly, Streptavidin coated plates (NUNC) were blocked with 0.1% BSA in PBS overnight at 4° C. After washing with PBS-0.05% Tween 20, plates were coated for 1 hour at RT with the different peptides from the library, diluted in 0.1% BSA, 0.1% Sodium Azide in PBS to a final concentration of 10 μM. […] Plates were washed again and incubated with alkaline phosphatase conjugated goat anti human IgG for 1 h at RT. After final washing, plates were incubated with phosphatase substrate (pNPP) and read at 405 nm using an ELISA plate reader.

[2] = target: T2, peptide A19 of the second library (Aβ12-20 with aa 19 changed to alanine) (also: biotinylated, position not given here)
T2 peptide: VHHQKLVAF
Text: as §1

[3] = target: T3, peptide A17 of the second library (Aβ12-20 with aa 17 changed to alanine) (also: biotinylated, position not given here)
T3 peptide: VHHQKAVFF
Text: as §1

[4] = target: T4, peptide A16 of the second library (Aβ12-20 with aa 16 changed to alanine) (also: biotinylated, position not given here)
T4 peptide: VHHQALVFF
Text: as §1

Measured: binding result

B1: humanized anti-human amyloid beta monoclonal antibody hC2 (antibody, human IgG4 S228P, kappa)
heavy: not shown
light: DIVMTQSPLSLPVTPGEPASISCRSSQSLVYSNGDTYLHWYLQKPGQSPQLLIYKVSNRFSGVPDRFSGSGSGTDFTLKISRVEAEDVGVYYCSQSTHVPWTFGQGTKVEIKRTVAAPSVFIFPPSDEQLKSGTASVVCLLNNFYPREAKVQWKVDNALQSGNSQESVTEQDSKDSTYSLSSTLTLSKADYEKHKVYACEVTHQGLSSPVTKSFNRGEC
notes: also called humanized antibody C2; humanized C2
no binding (tested: 200 ng/ml): [1] | [2] | [3] | [4]
